# Source: PMC4931990
# Biological target: KDM2B/FBXL10 (UniProt Q8NHM5)
# Experiment: co-IP, western blot
# Conditions: reference: wild type, EGF-treated; sites S374
substance,measurement,value
"c-Fos (from UniProt P01100) S374A, EGF-treated",binding against the reference,stronger
